The source of these data is publication PMC4588886, “A link between magnesium-chelatase H subunit and sucrose nonfermenting 1 (SNF1)-related protein kinase SnRK2.6/OST1 in Arabidopsis guard cell signalling in response to abscisic acid” (Journal of Experimental Botany, 2015).

As a reminder, the Kd is the concentration at which binding is half-saturated. Read a low Kd as a tighter complex.

The target of assay [1] is T1, GST-tagged C-terminal half of ABAR protein (aa 681-1381) (Arabidopsis thaliana, UniProt Q9FNB0 681-1381).
T1 chain: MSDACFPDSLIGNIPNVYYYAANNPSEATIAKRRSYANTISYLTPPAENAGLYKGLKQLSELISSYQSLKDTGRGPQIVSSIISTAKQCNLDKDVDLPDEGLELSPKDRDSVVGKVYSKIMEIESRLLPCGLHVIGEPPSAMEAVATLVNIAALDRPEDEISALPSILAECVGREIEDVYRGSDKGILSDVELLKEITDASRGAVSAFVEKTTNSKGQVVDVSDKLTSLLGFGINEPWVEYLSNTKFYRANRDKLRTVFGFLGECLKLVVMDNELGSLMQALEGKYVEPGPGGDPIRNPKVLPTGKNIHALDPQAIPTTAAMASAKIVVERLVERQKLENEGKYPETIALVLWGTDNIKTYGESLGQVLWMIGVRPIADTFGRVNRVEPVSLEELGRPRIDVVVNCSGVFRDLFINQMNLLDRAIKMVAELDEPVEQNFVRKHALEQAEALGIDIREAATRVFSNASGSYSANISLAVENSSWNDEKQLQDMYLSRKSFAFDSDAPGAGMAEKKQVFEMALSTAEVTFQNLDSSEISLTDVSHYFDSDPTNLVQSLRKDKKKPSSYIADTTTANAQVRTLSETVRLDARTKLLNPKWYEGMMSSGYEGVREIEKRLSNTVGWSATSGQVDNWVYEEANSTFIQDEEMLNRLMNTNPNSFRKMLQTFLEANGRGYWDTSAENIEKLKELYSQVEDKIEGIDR
The assay is described as follows: SPR. Background: SPR reads the build-up and loss of mass on a sensor chip optically.

The target in assay [2] is T2, GST-tagged C-terminal half of ABAR protein (aa 681-1381) (Arabidopsis thaliana, UniProt Q9FNB0 681-1381).
T2 construct: Cloned into pGEX-4T-1; also called GST-ABAR; recombinant truncated ABAR protein; source: E. coli BL21(DE3), purified (Sepharose 4B)
T2 sequence (looked up): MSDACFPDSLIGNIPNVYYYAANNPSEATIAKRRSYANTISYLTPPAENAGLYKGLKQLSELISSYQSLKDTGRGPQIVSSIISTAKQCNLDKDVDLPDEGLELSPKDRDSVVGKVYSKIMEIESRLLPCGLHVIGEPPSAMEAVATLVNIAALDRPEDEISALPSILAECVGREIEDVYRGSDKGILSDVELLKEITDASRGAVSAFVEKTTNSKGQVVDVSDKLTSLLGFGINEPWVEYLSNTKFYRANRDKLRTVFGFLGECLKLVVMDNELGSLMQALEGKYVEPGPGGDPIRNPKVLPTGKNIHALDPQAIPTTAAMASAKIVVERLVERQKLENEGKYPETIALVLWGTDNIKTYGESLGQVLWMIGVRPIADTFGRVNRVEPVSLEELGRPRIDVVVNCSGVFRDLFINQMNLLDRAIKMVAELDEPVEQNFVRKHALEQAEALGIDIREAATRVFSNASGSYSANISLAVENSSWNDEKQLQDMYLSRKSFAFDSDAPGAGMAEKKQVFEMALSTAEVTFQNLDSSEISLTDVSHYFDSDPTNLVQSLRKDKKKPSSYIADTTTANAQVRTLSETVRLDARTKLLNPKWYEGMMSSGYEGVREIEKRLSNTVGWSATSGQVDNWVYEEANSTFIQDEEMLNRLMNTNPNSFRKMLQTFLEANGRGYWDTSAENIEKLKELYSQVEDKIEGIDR
Nature of the assay: pull-down; GST-tagged ABAR (aa 681-1381, 1 ug) or GST alone added to E. coli lysate expressing His-tagged OST1; glutathione-sepharose 4B beads, 4 °C, 12 h; 10 mM Tris-HCl pH 7.5, 200 mM NaCl, 10% glycerol; blot with anti-His. To be noted: one partner purified.

B1: His-tagged OST1 protein (recombinant, full-length ORF) (enzyme, Arabidopsis thaliana, UniProt Q940H6 1-362, looked up)
chain: MDRPAVSGPMDLPIMHDSDRYELVKDIGSGNFGVARLMRDKQSNELVAVKYIERGEKIDENVKREIINHRSLRHPNIVRFKEVILTPTHLAIVMEYASGGELFERICNAGRFSEDEARFFFQQLISGVSYCHAMQVCHRDLKLENTLLDGSPAPRLKICDFGYSKSSVLHSQPKSTVGTPAYIAPEVLLKKEYDGKVADVWSCGVTLYVMLVGAYPFEDPEEPKNFRKTIHRILNVQYAIPDYVHISPECRHLISRIFVADPAKRISIPEIRNHEWFLKNLPADLMNDNTMTTQFDESDQPGQSIEEIMQIIAEATVPPAGTQNLNHYLTGSLDIDDDMEEDLESDLDDLDIDSSGEIVYAM
notes: SNF1-related protein kinase SnRK2.6/OST1/SRK2E, Arabidopsis thaliana, At4g33950, full-length ORF; Cloned into pET-48b(+); also called recombinant OST1; SnRK2.6; source: E. coli BL21(DE3): in cell lysate (pull-down); purified (Ni-NTA agarose)
In assay [1], B1 gave a Kd of approximately 71.4 nM. In assay [2], the binding result is reported as “binds”.
